Assay results published in the supplement of paper PMC7877785.
± gives the uncertainty stated by the source.

Assay: self-splicing fitness, log relative to wild type (ln ratio); higher = more splicing; Tetrahymena group I intron in knt gene, E. coli kanamycin selection, DiMSum; sequences stand for … in CUCUCU…GGAGGGAAAAGUUAUCAGGCAUGCACCUGGUAGCUAGUCUUUAAACCAAUAGAUUGCAUCGGUUUAAAAGGCAAGACCGUCAAAUUGCGGGAAAGGGGUCAACAGCCGUUCAGUACCAAGUCUCAGGGGAAACUUUGAGAUGGCCUUGCAAAGGGUAUGGUAAUAAGCUGACGGACAUGGUCCUAACCACGCAGCCAAGUCCUAAGUCAACAGAUCUUCUGUUGAUAUGGAUGCAGUUCACAGACUAAAUGUCGGUCGGGGAAGAUGUAUUCUUCUCAUAAGAUAUAGUCGGACCUCUCCUUAAUGGGAGCUAGCGGAUGAAGUGAUGCAACACUGGAGCCGCUGGGAACUAAUUUGUAUGCGAAAGUAUAUUGAUUAGUUUUGGAGUACUCGUGGUCG
Procedure, shortened: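 A randomised library covering all eight P1ex-region intron nucleotides was built with the intron in the knt kanamycin-resistance gene on pET-22b(+) and held in E. coli BL21(DE3). Cells were grown overnight at 37°C or 30°C on LB agar, with or without 25 μg/mL kanamycin, plus 100 μg/mL carbenicillin, 50 μM IPTG and 0.2% rhamnose, and pooled colonies were amplicon-sequenced on an Illumina HiSeq 2500. DiMSum fitness is the error-weighted combination of wild-type-normalised replicate fold changes, kanamycin versus none.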

| Sequence | self-splicing fitness (ln) (30 °C) | self-splicing fitness (ln) (37 °C) |
| --- | --- | --- |
| CGGGAGCAAUAUUACGGUUG | -1.89 ± 0.44 | – |
| CGGGAGCAAUAUUACGUAGC | -2.26 ± 0.32 | -1.05 ± 0.22 |
| CGGGAGCAAUAUUACGUAUC | -2.58 ± 0.49 | – |
| CGGGAGCAAUAUUACGUCAA | -2.14 ± 0.19 | -2.79 ± 0.38 |
| CGGGAGCAAUAUUACGUCUU | – | -0.499 ± 0.36 |
| CGGGAGCAAUAUUACGUUGU | -4.45 ± 0.29 | -2.65 ± 0.26 |
| CGGUAGCAAUAUUACGAACC | – | -1.2 ± 0.31 |
| CGGUAGCAAUAUUACGAAUG | -0.573 ± 0.076 | 0.205 ± 0.097 |
| CGGUAGCAAUAUUACGACAU | -2.405 ± 0.019 | -1.38 ± 0.035 |
| CGGUAGCAAUAUUACGACCG | -2.88 ± 0.36 | -2.07 ± 0.42 |
| CGGUAGCAAUAUUACGACUG | -2.54 ± 0.28 | -1.86 ± 0.32 |
| CGGUAGCAAUAUUACGAGUU | -3.87 ± 0.36 | -3.26 ± 0.27 |
| CGGUAGCAAUAUUACGAUGA | -1.38 ± 0.13 | -0.66 ± 0.16 |
| CGGUAGCAAUAUUACGCAUA | -4.37 ± 0.42 | -2.34 ± 0.26 |
| CGGUAGCAAUAUUACGCUGG | -0.433 ± 0.13 | -0.681 ± 0.15 |
| CGGUAGCAAUAUUACGGAUU | -2.63 ± 0.36 | -2.23 ± 0.34 |
| CGGUAGCAAUAUUACGGCCU | -0.555 ± 0.12 | -0.911 ± 0.12 |
| CGGUAGCAAUAUUACGGCUC | -1.15 ± 0.079 | -0.532 ± 0.11 |
| CGGUAGCAAUAUUACGGGAG | -3.22 ± 0.17 | -1.71 ± 0.14 |
| CGGUAGCAAUAUUACGGGAU | -3.86 ± 0.47 | – |
| CGGUAGCAAUAUUACGGGUG | -0.483 ± 0.068 | 0.146 ± 0.077 |
| CGGUAGCAAUAUUACGGUCU | -0.673 ± 0.068 | -0.251 ± 0.093 |
| CGGUAGCAAUAUUACGGUGC | -2.22 ± 0.27 | -2.48 ± 0.38 |
| CGGUAGCAAUAUUACGGUGG | -0.519 ± 0.092 | -0.124 ± 0.12 |
| CGGUAGCAAUAUUACGUAAA | -1.14 ± 0.08 | -2.33 ± 0.17 |

| Sequence | self-splicing fitness (ln) (30 °C) | self-splicing fitness (ln) (37 °C) |
| --- | --- | --- |
| CGGUAGCAAUAUUACGUAUU | -2 ± 0.32 | -2.16 ± 0.27 |
| CGGUAGCAAUAUUACGUCGG | -0.5 ± 0.095 | 0.638 ± 0.12 |
| CGGUAGCAAUAUUACGUGAG | -0.593 ± 0.059 | 0.467 ± 0.092 |
| CGGUAGCAAUAUUACGUGCA | -1.61 ± 0.12 | -0.501 ± 0.13 |
| CGGUAGCAAUAUUACGUGCC | -1.18 ± 0.14 | -4.06 ± 0.34 |
| CGGUAGCAAUAUUACGUUAC | -3.32 ± 0.36 | -2.09 ± 0.31 |
| CGGUAGCAAUAUUACGUUGA | -3.27 ± 0.35 | -1.76 ± 0.17 |
| CGUAAGCAAUAUUACGAACA | -1.23 ± 0.19 | -0.207 ± 0.22 |
| CGUAAGCAAUAUUACGAAUU | -3.76 ± 0.29 | -2.17 ± 0.21 |
| CGUAAGCAAUAUUACGACCG | -0.867 ± 0.1 | -0.46 ± 0.19 |
| CGUAAGCAAUAUUACGACGC | -1.86 ± 0.3 | -2.02 ± 0.28 |
| CGUAAGCAAUAUUACGACUA | -2.29 ± 0.27 | -1.96 ± 0.24 |
| CGUAAGCAAUAUUACGAUCC | -2.82 ± 0.33 | -1.82 ± 0.3 |
| CGUAAGCAAUAUUACGCACG | -1.76 ± 0.14 | -1.06 ± 0.17 |
| CGUAAGCAAUAUUACGCAGG | -2.25 ± 0.094 | -1.02 ± 0.11 |
| CGUAAGCAAUAUUACGCCAG | -2.15 ± 0.15 | -0.931 ± 0.18 |
| CGUAAGCAAUAUUACGCGCA | -1.3 ± 0.16 | -0.345 ± 0.14 |
| CGUAAGCAAUAUUACGCGCU | -2.03 ± 0.14 | -1.52 ± 0.15 |
| CGUAAGCAAUAUUACGCGUC | -3.79 ± 0.21 | -2.87 ± 0.19 |
| CGUAAGCAAUAUUACGGACA | -0.986 ± 0.099 | -1.18 ± 0.12 |
| CGUAAGCAAUAUUACGGCAC | -3.68 ± 0.29 | -0.595 ± 0.22 |
| CGUAAGCAAUAUUACGGCCG | -0.668 ± 0.11 | 0.0976 ± 0.13 |
| CGUAAGCAAUAUUACGGCCU | -3.28 ± 0.26 | -1.54 ± 0.22 |
| CGUAAGCAAUAUUACGGGUA | -2.63 ± 0.15 | -2.48 ± 0.21 |
